Paper PMC6513899, “The structural basis of translational control by eIF2 phosphorylation” (Nature Communications, 2019)

T1: eIF2Bδ (subunit of eIF2B) (S. cerevisiae, UniProt P12754 1-651)
T1 construct: eIF2B delta subunit, S. cerevisiae; Stood in the assay as a subunit of the eIF2B decamer; also called eIF2B delta; source: S. cerevisiae strains GP5949 and GP7055, purified as part of Flag-eIF2B
T1 sequence: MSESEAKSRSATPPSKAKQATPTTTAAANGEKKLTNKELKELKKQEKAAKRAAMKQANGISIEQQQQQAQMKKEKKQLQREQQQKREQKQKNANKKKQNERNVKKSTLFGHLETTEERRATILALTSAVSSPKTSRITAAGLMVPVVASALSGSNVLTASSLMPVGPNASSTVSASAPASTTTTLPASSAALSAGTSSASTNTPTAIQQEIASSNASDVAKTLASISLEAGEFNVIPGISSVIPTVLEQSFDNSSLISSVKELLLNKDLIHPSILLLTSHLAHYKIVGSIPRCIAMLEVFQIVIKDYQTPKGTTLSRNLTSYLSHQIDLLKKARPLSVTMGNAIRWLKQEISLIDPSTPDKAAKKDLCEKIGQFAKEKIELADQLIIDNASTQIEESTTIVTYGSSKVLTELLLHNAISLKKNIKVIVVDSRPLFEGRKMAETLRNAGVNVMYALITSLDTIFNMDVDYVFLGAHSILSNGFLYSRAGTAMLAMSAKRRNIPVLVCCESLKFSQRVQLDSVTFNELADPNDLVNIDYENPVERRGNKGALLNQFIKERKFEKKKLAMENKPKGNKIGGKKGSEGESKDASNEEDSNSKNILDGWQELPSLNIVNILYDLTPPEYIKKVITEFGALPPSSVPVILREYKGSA

B1: eIF2Bβ (subunit of eIF2B) (natural protein, S. cerevisiae)
chain: MSSQAFTSVHPNAATSDVNVTIDTFVAKLKRRQVQGSYAIALETLQLLMRFISAARWNHVNDLIEQIRDLGNSLEKAHPTAFSCGNVIRRILAVLRDEVEEDTMSTTVTSTSVAEPLISSMFNLLQKPEQPHQNRKNSSGSSSMKTKTDYRQVAIQGIKDLIDEIKNIDEGIQQIAIDLIHDHEILLTPTPDSKTVLKFLITARERSNRTFTVLVTEGFPNNTKNAHEFAKKLAQHNIETLVVPDSAVFALMSRVGKVIIGTKAVFVNGGTISSNSGVSSVCECAREFRTPVFAVAGLYKLSPLYPFDVEKFVEFGGSQRILPRMDPRKRLDTVNQITDYVPPENIDIYITNVGGFNPSFIYRIAWDNYKQIDVHLDKNKA
notes: eIF2B beta subunit, S. cerevisiae; Stood in the assay as a subunit of the eIF2B decamer; also called eIF2B beta; source: S. cerevisiae strains GP5949 and GP7055, purified as part of Flag-eIF2B
B2: eIF2Bα (subunit of eIF2B) (natural protein, S. cerevisiae)
chain: MSEFNITETYLRFLEEDTEMTMPIAAIEALVTLLRIKTPETAAEMINTIKSSTEELIKSIPNSVSLRAGCDIFMRFVLRNLHLYGDWENCKQHLIENGQLFVSRAKKSRNKIAEIGVDFIADDDIILVHGYSRAVFSLLNHAANKFIRFRCVVTESRPSKQGNQLYTLLEQKGIPVTLIVDSAVGAVIDKVDKVFVGAEGVAESGGIINLVGTYSVGVLAHNARKPFYVVTESHKFVRMFPLSSDDLPMAGPPLDFTRRTDDLEDALRGPTIDYTAQEYITALITDLGVLTPSAVSEELIKMWYD
notes: eIF2B alpha subunit, S. cerevisiae; Stood in the assay as a subunit of the eIF2B decamer; also called eIF2B alpha; source: S. cerevisiae strains GP5949 and GP7055, purified as part of Flag-eIF2B

How the values were obtained:
[1] = target: T1, eIF2Bδ (subunit of eIF2B); assay: cryo-EM structure; eIF2αP/eIF2B complex: six-fold molar excess of eIF2αP added to purified eIF2B (GP5949), fractionated on Superose 6 in 20 mM Tris-HCl, 100 mM KCl, 1 mM TCEP, pH 7.5; core map 3.9 Å, lateral densities 8-18 Å; half-particles classified by localised reconstruction; conditions: both partners purified
[2] = target: the molecule itself; assay: as above

Binder	binding result [1]	binding result [2]
B1	binds	
B2		binds
